Laboratory results reported in paper PMC4191604 (Journal of Medicinal Chemistry, 2014).

Tests used:
Assay in all cases: SPR
[1] = target: T1, GBP1 mutant R227A/K228A (human, UniProt P32455 1-592, R227A | K228A)
T1 sequence (looked up): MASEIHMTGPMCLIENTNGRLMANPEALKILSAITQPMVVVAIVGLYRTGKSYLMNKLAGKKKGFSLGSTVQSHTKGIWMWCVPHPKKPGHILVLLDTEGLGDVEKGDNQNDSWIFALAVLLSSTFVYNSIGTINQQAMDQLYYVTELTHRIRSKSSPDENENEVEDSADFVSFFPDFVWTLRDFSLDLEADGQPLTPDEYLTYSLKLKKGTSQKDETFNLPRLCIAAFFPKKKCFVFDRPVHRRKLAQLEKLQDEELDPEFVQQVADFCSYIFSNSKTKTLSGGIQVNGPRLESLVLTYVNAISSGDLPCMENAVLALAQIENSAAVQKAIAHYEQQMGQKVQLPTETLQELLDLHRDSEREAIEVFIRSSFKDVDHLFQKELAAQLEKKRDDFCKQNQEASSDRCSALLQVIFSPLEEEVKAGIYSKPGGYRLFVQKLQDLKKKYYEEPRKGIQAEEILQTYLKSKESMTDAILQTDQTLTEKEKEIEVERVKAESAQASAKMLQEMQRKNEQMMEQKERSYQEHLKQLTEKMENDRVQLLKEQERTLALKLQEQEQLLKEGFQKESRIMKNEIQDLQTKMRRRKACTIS

[2] = target: T2, GBP1 mutant R227E/K228E (human, UniProt P32455 1-592, R227E | K228E)
T2 sequence (looked up): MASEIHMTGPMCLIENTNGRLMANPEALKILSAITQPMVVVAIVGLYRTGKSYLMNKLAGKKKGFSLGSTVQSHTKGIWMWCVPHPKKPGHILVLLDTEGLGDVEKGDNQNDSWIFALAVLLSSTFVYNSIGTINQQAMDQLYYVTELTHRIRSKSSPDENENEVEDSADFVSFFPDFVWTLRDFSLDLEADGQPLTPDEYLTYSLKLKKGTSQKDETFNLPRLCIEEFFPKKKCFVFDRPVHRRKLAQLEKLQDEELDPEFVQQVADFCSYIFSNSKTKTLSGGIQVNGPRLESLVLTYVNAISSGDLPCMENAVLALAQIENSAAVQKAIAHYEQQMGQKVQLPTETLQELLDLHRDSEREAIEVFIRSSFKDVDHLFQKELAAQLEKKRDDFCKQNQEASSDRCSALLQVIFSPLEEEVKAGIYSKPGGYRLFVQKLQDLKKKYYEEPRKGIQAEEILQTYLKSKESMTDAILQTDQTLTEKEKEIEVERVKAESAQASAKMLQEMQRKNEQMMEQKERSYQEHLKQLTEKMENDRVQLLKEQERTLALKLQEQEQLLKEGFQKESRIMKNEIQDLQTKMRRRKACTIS

[3] = target: T3, GBP1 mutant R48A (human, UniProt P32455 1-592, R48A)
T3 sequence (looked up): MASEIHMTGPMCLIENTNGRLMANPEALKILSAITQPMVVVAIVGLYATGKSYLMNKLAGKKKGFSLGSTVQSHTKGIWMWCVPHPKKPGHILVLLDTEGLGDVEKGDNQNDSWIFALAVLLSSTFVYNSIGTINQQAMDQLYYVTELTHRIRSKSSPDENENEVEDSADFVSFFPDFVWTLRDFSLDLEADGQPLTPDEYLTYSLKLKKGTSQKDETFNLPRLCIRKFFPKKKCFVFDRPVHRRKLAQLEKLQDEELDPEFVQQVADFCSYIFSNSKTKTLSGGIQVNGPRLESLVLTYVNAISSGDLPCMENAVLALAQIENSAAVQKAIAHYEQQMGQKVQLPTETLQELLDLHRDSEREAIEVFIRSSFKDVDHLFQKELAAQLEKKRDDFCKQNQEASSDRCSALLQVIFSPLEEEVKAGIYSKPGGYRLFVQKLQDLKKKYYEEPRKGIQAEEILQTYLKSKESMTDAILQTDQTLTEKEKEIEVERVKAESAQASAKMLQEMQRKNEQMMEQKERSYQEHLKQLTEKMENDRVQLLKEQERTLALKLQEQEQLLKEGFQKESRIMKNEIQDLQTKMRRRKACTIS

[4] = target: T4, GBP1 mutant K51A (human, UniProt P32455 1-592, K51A)
T4 sequence (looked up): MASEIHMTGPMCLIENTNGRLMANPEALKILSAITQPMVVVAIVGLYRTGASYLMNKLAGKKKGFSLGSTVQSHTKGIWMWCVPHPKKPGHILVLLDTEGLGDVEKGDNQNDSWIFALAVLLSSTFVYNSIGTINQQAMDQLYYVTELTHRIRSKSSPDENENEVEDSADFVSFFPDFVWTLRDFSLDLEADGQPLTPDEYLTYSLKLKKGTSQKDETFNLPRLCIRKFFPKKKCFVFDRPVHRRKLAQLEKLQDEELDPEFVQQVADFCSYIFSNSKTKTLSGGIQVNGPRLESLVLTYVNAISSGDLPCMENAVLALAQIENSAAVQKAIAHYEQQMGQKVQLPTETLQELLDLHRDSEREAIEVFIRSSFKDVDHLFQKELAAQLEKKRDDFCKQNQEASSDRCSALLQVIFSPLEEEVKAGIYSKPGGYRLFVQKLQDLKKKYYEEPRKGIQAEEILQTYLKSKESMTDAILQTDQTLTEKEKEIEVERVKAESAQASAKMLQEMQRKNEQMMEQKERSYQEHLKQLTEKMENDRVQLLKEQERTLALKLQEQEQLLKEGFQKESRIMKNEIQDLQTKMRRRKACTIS

- Kd [1]: 137 ± 14 nM
- Kd [2]: > 10000 nM
- Kd [3]: 290 ± 21 nM
- Kd [4]: 50 ± 10 nM
B1: PIM1 (recombinant) (enzyme)
chain: not shown
